Data taken from US20120258108A1 (AbbVie / Abbott, published 2012).

Target: Recombinant Human VEGF 165 (human, UniProt P15692-4 27-191)
Assay: SPR (BIACORE)
Protocol: (§1) The BIACORE assay (Biacore, Inc, Piscataway, N.J.) determines the affinity of antibodies or DVD-Ig with kinetic measurements of on-rate and off-rate constants. Binding of antibodies or DVD-Ig to a target antigen (for example, a purified recombinant target antigen) was determined by surface plasmon resonance-based measurements with a Biacore® 1000 or 3000 instrument (Biacore® AB, Uppsala, Sweden) using running HBS-EP (10 mM HEPES [pH 7.4], 150 mM NaCl, 3 mM EDTA, and 0.005% surfactant P20) at 25° C. All chemicals were obtained from Biacore® AB (Uppsala, Sweden) or otherwise from a different source as described in the text. For example, approximately 5000 RU of goat anti-mouse IgG, (Fcγ), fragment specific polyclonal antibody (Pierce Biotechnology Inc, Rockford, Ill.) diluted in 10 mM sodium acetate (pH 4.5) is directly immobilized across a CM5 research grade biosensor chip using a standard amine coupling kit according to manufacturer's instructions and procedures at 25 μg/ml. Unreacted moieties on the biosensor surface are blocked with ethanolamine. Modified carboxymethyl dextran surface in flowcell 2 and 4 is used as a reaction surface. Unmodified carboxymethyl dextran without goat anti-mouse IgG in flow cell 1 and 3 is used as the reference surface. For kinetic analysis, rate equations derived from the 1:1 Langmuir binding model are fitted simultaneously to association and dissociation phases of all eight injections (using global fit analysis) with the use of Biaevaluation 4.0.1 software. Purified antibodies or DVD-Ig are diluted in HEPES-buffered saline for capture across goat anti-mouse IgG specific reaction surfaces. Antibodies or DVD-Ig to be captured as a ligand (25 μg/ml) are injected over reaction matrices at a flow rate of 5 μl/min. The association and dissociation rate constants, kₒₙ (M⁻¹ s⁻¹) and koff (s⁻¹) are determined under a continuous flow rate of 25 μl/min. Rate constants are derived by making kinetic binding measurements at different antigen concentrations ranging from 10-200 nM. The equilibrium dissociation constant (M) of the reaction between antibodies or DVD-Igs and the target antigen is then calculated from the kinetic rate constants by the following formula: KD=koff/kₒₙ. Binding is recorded as a function of time and kinetic rate constants are calculated.

Sequence of Recombinant Human VEGF 165 (P15692 other isoform, or with tags, fused parts or gaps limits assumed): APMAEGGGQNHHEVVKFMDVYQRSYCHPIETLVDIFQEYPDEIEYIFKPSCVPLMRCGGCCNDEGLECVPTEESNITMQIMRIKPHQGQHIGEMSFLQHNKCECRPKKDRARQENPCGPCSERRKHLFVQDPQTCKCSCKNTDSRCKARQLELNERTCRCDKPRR

Kd | koff | kon | Binder
0.5 nM | 4.5e-05 s⁻¹ | 89000 M⁻¹ s⁻¹ | DVD1731 (bispecific antibody, human IgG1, kappa, DVD-Ig) heavy: not shown light: DIQMTQSPSSLSASVGDRVTITCRASEDIYSNLAWYQQKPGKAPKLLIYDTNNLADGVPSRFSGSGSGTDFTLTISSLQPEDVATYYCQQYNNYPPTFGQGTKVEIKRTVAAPDIRMTQSPASLSASLGETVNIECSASQDISNYLNWYQQKPGKAPQVLIYFTSSLHSGVPSRFSGSGSGTQFSLKINSLQSEDVATYYCQQYSTVPWTFGGGTKLELKRTVAAPSVFIFPPSDEQLKSGTASVVCLLNNFYPREAKVQWKVDNALQSGNSQESVTEQDSKDSTYSLSSTLTLSKADYEKHKVYACEVTHQGLSSPVTKSFNRGEC
0.1 nM | 7.7e-05 s⁻¹ | 760000 M⁻¹ s⁻¹ | DVD1713 (bispecific antibody, human IgG1, kappa, DVD-Ig) heavy: not shown light: DIVMTQSPDSLAVSLGERATINCRASEDIYSNLAWYQQKPGQAPKLLIYDTNNLADGVPDRFSGSGSGTDFTLTISSLQAEDVAVYYCQQYNNYPPTFGGGTKVEIKRTVAAPEIVMTQSPATLSVSPGERATLSCSASQDISNYLNWYQQKPGQAPRVLIYFTSSLHSDVPARFSGSGSGTEFTLTISSLQSEDFAVYYCQQYSTVPWTFGQGTRLEIKRTVAAPSVFIFPPSDEQLKSGTASVVCLLNNFYPREAKVQWKVDNALQSGNSQESVTEQDSKDSTYSLSSTLTLSKADYEKHKVYACEVTHQGLSSPVTKSFNRGEC
< 0.001 nM | < 1e-06 s⁻¹ | 1e+06 M⁻¹ s⁻¹ | AB285 (antibody, human IgG1, kappa, V domains shown, CDR-grafted parent antibody; also called VEGF (AB057)) VH: EVTLRESGPALVKPTQTLTLTCTASGYTFTNYGMNWVRQPPGKGLEWVGWINTYTGEPTYAADFKRRFTFSLDTSKSQAVLTMTNMDPVDTATYYCAKYPHYYGSSHWYFDVWGQGTTVTVSS VL: DIVMTQSPDSLAVSLGERATINCSASQDISNYLNWYQQKPGQAPKVLIYFTSSLHSGVPDRFSGSGSGTDFTLTISSLQAEDVAVYYCQQYSTVPWTFGGGTKVEIKR

Target: Recombinant Human DLL4 (human, UniProt Q9NR61 27-524)
Assay: SPR (BIACORE)
Protocol: as §1

Sequence of Recombinant Human DLL4 (Q9NR61 27-524 limits assumed): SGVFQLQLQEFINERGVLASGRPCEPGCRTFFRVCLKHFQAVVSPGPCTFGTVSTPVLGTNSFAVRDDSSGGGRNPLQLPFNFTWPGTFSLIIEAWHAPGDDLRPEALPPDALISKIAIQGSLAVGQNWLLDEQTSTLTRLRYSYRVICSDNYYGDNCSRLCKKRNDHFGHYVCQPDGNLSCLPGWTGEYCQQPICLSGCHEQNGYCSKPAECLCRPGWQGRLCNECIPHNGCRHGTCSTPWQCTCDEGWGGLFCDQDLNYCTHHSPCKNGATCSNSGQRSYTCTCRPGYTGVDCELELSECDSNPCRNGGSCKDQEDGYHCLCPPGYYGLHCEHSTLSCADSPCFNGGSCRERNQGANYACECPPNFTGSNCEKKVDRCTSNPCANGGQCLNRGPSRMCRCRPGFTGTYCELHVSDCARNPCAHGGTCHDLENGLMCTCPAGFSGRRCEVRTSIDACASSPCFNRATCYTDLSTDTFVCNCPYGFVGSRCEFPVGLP

Kd | koff | kon | Binder
14 nM | 0.0055 s⁻¹ | 390000 M⁻¹ s⁻¹ | AB334 (antibody, human IgG1, kappa, V domains shown, CDR-grafted parent antibody) VH: QVQLQQSGAELMKPGASVKLSCKATGFTFSNFPMAWVKQRPGHGLEWVATISSSDGTTYYRDSVKGKFTITRDNSSNTLYIQLISLTTEDSAIYYCARGYYNSPFAYWGQGTLLTVSA VL: DILMTQSPAILSVSPGERVSFSCRASEDIYSNLAWYQQRTNGAPRLLIYDTNNLADGVPSRFSGGGSGTDFTLSINSVESEDIADYYCQQYNNYPPTFGAGTKLELKR
22 nM | 0.0028 s⁻¹ | 120000 M⁻¹ s⁻¹ | DVD1731 (bispecific antibody, human IgG1, kappa, DVD-Ig) heavy: not shown light: DIQMTQSPSSLSASVGDRVTITCRASEDIYSNLAWYQQKPGKAPKLLIYDTNNLADGVPSRFSGSGSGTDFTLTISSLQPEDVATYYCQQYNNYPPTFGQGTKVEIKRTVAAPDIRMTQSPASLSASLGETVNIECSASQDISNYLNWYQQKPGKAPQVLIYFTSSLHSGVPSRFSGSGSGTQFSLKINSLQSEDVATYYCQQYSTVPWTFGGGTKLELKRTVAAPSVFIFPPSDEQLKSGTASVVCLLNNFYPREAKVQWKVDNALQSGNSQESVTEQDSKDSTYSLSSTLTLSKADYEKHKVYACEVTHQGLSSPVTKSFNRGEC
31 nM | 0.0029 s⁻¹ | 92000 M⁻¹ s⁻¹ | DVD1713 (bispecific antibody, human IgG1, kappa, DVD-Ig) heavy: not shown light: DIVMTQSPDSLAVSLGERATINCRASEDIYSNLAWYQQKPGQAPKLLIYDTNNLADGVPDRFSGSGSGTDFTLTISSLQAEDVAVYYCQQYNNYPPTFGGGTKVEIKRTVAAPEIVMTQSPATLSVSPGERATLSCSASQDISNYLNWYQQKPGQAPRVLIYFTSSLHSDVPARFSGSGSGTEFTLTISSLQSEDFAVYYCQQYSTVPWTFGQGTRLEIKRTVAAPSVFIFPPSDEQLKSGTASVVCLLNNFYPREAKVQWKVDNALQSGNSQESVTEQDSKDSTYSLSSTLTLSKADYEKHKVYACEVTHQGLSSPVTKSFNRGEC
1 nM | 9.2e-05 s⁻¹ | 89000 M⁻¹ s⁻¹ | AB316 (antibody, human IgG1, kappa, V domains shown, CDR-grafted parent antibody) VH: EVQLVESGGGLVQPANSLKLSCAVSGGSISSSSYYWGWIRQSPKKGLEWIGDIYYTGSTYYNPSLKSRVTISVDTAKNTFYLQMDSLRSEDTATYYCARQALAMGGGSDKWGQGVLVTVSS VL: DYRLTQSPASLSASLGETVNIECSGQRLGDKYASWYQQKPGKSPQLVIYEDSKRPSGIPSRFSGSNSGDQASLKINSLQSEDVATYYCQAWDRDTGVFGGGTKLELKR
20 nM | 0.002 s⁻¹ | 100000 M⁻¹ s⁻¹ | AB319 (antibody, human IgG1, kappa, V domains shown, CDR-grafted parent antibody) VH: EVQLVESGGGLVQPANSLKLSCAASGFTFSNFPMAWVRQSPKKGLEWVATISSSDGTTYYRDSVKGRFTISRDNAKNTLYLQMDSLRSEDTATYYCARGYYNSPFAYWGQGVLVTVSS VL: DIRMTQSPASLSASLGETVNIECRASEDIYSNLAWYQQKPGKAPQLLIYDTNNLADGVPSRFSGSGSGTQFSLKINSLQSEDVATYYCQQYNNYPPTFGGGTKLELKR
22 nM | 0.0028 s⁻¹ | 130000 M⁻¹ s⁻¹ | AB309 (antibody, human IgG1, kappa, V domains shown, CDR-grafted parent antibody) VH: EVQLVESGGGLVQPGRSLRLSCAASGFTFSNFPMAWVRQAPGKGLEWVATISSSDGTTYYRDSVKGRFTISRDNAKNSLYLQMNSLRAEDTAVYYCARGYYNSPFAYWGQGTLVTVSS VL: DIQMTQSPSSLSASVGDRVTITCRASEDIYSNLAWYQQKPGKAPKLLIYDTNNLADGVPSRFSGSGSGTDFTLTISSLQPEDVATYYCQQYNNYPPTFGQGTKVEIKR
2.3 nM | 0.00018 s⁻¹ | 76000 M⁻¹ s⁻¹ | AB331 (antibody, human IgG1, kappa, V domains shown, CDR-grafted parent antibody) VH: QVQLQQSGAELMKPGASVKLSCKVTGGSISSSSYYWGWIKQRPGHGLEWIGDIYYTGSTYYNPSLKSKVTITVDTSSNTFYIQLISLTTEDSAIYYCARQALAMGGGSDKWGQGTLLTVSA VL: DYLLTQSPAILSVSPGERVSFSCSGQRLGDKYASWYQQRTNGSPRLVIYEDSKRPSGIPSRFSGGNSGDDATLSINSVESEDIADYYCQAWDRDTGVFGAGTKLELKR

Second part, the binder before the results:

Binder | Kd | koff | kon
AB289 (antibody, human IgG1, kappa, V domains shown, CDR-grafted parent antibody) VH: EVQLVQSGTEVKKPGESLKISCKASGFTFSNFPMAWVRQMPGKGLEWVATISSSDGTTYYRDSVKGQFTISRDNSFNTLFLQWSSLKASDTAMYYCARGYYNSPFAYWGQGTMVTVSS VL: EIVMTQSPATLSVSPGERATLSCRASEDIYSNLAWYQQKPGQAPRLLIYDTNNLADDVPARFSGSGSGTEFTLTISSLQSEDFAVYYCQQYNNYPPTFGQGTRLEIKR | 21 nM | 0.0055 s⁻¹ | 260000 M⁻¹ s⁻¹
AB290 (antibody, human IgG1, kappa, V domains shown, CDR-grafted parent antibody) VH: EVTLRESGPALVKPTQTLTLTCTASGFTFSNFPMAWVRQPPGKGLEWVATISSSDGTTYYRDSVKGRFTISRDNSKNQLVLTMTNMDPVDTATYYCARGYYNSPFAYWGQGTTVTVSS VL: DIVMTQSPDSLAVSLGERATINCRASEDIYSNLAWYQQKPGQAPKLLIYDTNNLADGVPDRFSGSGSGTDFTLTISSLQAEDVAVYYCQQYNNYPPTFGGGTKVEIKR | 20 nM | 0.0039 s⁻¹ | 200000 M⁻¹ s⁻¹
AB307 (antibody, human IgG1, kappa, V domains shown, CDR-grafted parent antibody) VH: EVQLLESGGGLVQPGGSLRLSCAVSGGSISSSSYYWGWIRQAPGKGLEWIGDIYYTGSTYYNPSLKSRVTISVDTSKNTFYLQMNSLRAEDTAVYYCARQALAMGGGSDKWGQGTLVTVSS VL: EYVLTQSPGTLSLSPGERATLSCSGQRLGDKYASWYQQKPGQSPRLVIYEDSKRPSGIPDRFSGSNSGDDATLTISRLEPEDFAVFYCQAWDRDTGVFGQGTKVEIKR | 1 nM | 9.5e-05 s⁻¹ | 93000 M⁻¹ s⁻¹
AB306 (antibody, human IgG1, kappa, V domains shown, CDR-grafted parent antibody) VH: EVQLVESGGGLVQPGRSLRLSCAVSGGSISSSSYYWGWIRQAPGKGLEWIGDIYYTGSTYYNPSLKSRVTISVDTAKNSFYLQMNSLRAEDTAVYYCARQALAMGGGSDKWGQGTLVTVSS VL: DYQLTQSPSSLSASVGDRVTITCSGQRLGDKYASWYQQKPGKSPKLVIYEDSKRPSGIPSRFSGSNSGDDATLTISSLQPEDVATYYCQAWDRDTGVFGQGTKVEIKR | 2.2 nM | 0.00015 s⁻¹ | 68000 M⁻¹ s⁻¹
AB299 (antibody, human IgG1, kappa, V domains shown, CDR-grafted parent antibody) VH: EVQLVESGGGLVQPGGSLRLSCAASGFTFSNFPMAWVRQAPGKGLEWVATISSSDGTTYYRDSVKGRFTISRDNSKNTLYLQMNSLRAEDTAVYYCARGYYNSPFAYWGQGTLVTVSS VL: DIQMTQSPSSLSASVGDRVTITCRASEDIYSNLAWYQQKPGKAPKLLIYDTNNLADGVPSRFSGSGSGTDFTLTISSLQPEDFATYYCQQYNNYPPTFGQGTKVEIKR | 24 nM | 0.0039 s⁻¹ | 160000 M⁻¹ s⁻¹
AB287 (antibody, human IgG1, kappa, V domains shown, CDR-grafted parent antibody) VH: EVTLRESGPALVKPTQTLTLTCTVSGGSISSSSYYWGWIRQPPGKGLEWIGDIYYTGSTYYNPSLKSRVTISVDTSKNQFVLTMTNMDPVDTATYYCARQALAMGGGSDKWGQGTTVTVSS VL: DYVLTQSPDSLAVSLGERATINCSGQRLGDKYASWYQQKPGQSPKLVIYEDSKRPSGIPDRFSGSNSGDDATLTISSLQAEDVAVYYCQAWDRDTGVFGGGTKVEIKR | 1.5 nM | 0.00012 s⁻¹ | 84000 M⁻¹ s⁻¹

Target: Recombinant Human TNFα/TNFSF1A (human, UniProt P01375 77-233)
Assay: cell-based or functional assay

Sequence of Recombinant Human TNFα/TNFSF1A (P01375 77-233 limits assumed): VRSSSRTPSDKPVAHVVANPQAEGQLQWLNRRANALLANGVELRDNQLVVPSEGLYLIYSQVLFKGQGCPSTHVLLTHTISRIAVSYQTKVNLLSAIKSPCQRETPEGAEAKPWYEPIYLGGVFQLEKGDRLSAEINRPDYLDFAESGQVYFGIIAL

N-terminal VD TNFα Neutralization Assay EC50 nM (L929 cells) | Binder
0.026 nM | DVD1720 (bispecific antibody) heavy: not shown light: EIVMTQSPGTLSLSPGERATLSCRASQGIRNYLAWYQQKPGQAPRLLIYAASTLQSGVPDRFSGSGSGTDFTLTISRLEPEDFAVFYCQRYNRAPYTFGQGTKVEIKRTVAAPDVQMTQSPSSLSASVGDRVTITCTSSQNIVHSNGNTYLEWYQQKPGKSPKLLIYKVSNRFSGVPSRFSGSGSGTDFTLTISSLQPEDVATYYCFQVSHVPYTFGQGTKVEIKRTVAAPSVFIFPPSDEQLKSGTASVVCLLNNFYPREAKVQWKVDNALQSGNSQESVTEQDSKDSTYSLSSTLTLSKADYEKHKVYACEVTHQGLSSPVTKSFNRGEC
